B1: Ceramide transfer protein (Homo sapiens), Q9Y5P4 (parent)
chain: MSDNQSWNSSGSEEDPETESGPPVERCGVLSKWTNYIHGWQDRWVVLKNNALSYYKSEDETEYGCRGSICLSKAVITPHDFDECRFDISVNDSVWYLRAQDPDHRQQWIDAIEQHKTESGYGSESSLRRHGSMVSLVSGASGYSATSTSSFKKGHSLREKLAEMETFRDILCRQVDTLQKYFDACADAVSKDELQRDKVVEDDEDDFPTTRSDGDFLHSTNGNKEKLFPHVTPKGINGIDFKGEAITFKATTAGILATLSHCIELMVKREDSWQKRLDKETEKKRRTEEAYKNAMTELKKKSHFGGPDYEEGPNSLINEEEFFDAVEAALDRQDKIEEQSQSEKVRLHWPTSLPSGDAFSSVGTHRFVQKPYSRSSSMSSIDLVSASDDVHRFSSQVEEMVQNHMTYSLQDVGGDANWQLVVEEGEMKVYRREVEENGIVLDPLKATHAVKGVTGHEVCNYFWNVDVRNDWETTIENFHVVETLADNAIIIYQTHKRVWPASQRDVLYLSVIRKIPALTENDPETWIVCNFSVDHDSAPLNNRCVRAKINVAMICQTLVSPPEGNQEISRDNILCKITYVANVNPGGWAPASVLRAVAKREYPKFLKRFTSYVQEKTAGKPILF
B2: Centrosomal protein POC5 (Homo sapiens), Q8NA72 (parent)
chain: MSSDEEKYSLPVVQNDSSRGSSVSSNLQEEYEELLHYAIVTPNIEPCASQSSHPKGELVPDVRISTIHDILHSQGNNSEVRETAIEVGKGCDFHISSHSKTDESSPVLSPRKPSHPVMDFFSSHLLADSSSPATNSSHTDAHEILVSDFLVSDENLQKMENVLDLWSSGLKTNIISELSKWRLNFIDWHRMEMRKEKEKHAAHLKQLCNQINELKELQKTFEISIGRKDEVISSLSHAIGKQKEKIELMRTFFHWRIGHVRARQDVYEGKLADQYYQRTLLKKVWKVWRSVVQKQWKDVVERACQARAEEVCIQISNDYEAKVAMLSGALENAKAEIQRMQHEKEHFEDSMKKAFMRGVCALNLEAMTIFQNRNDAGIDSTNNKKEEYGPGVQGKEHSAHLDPSAPPMPLPVTSPLLPSPPAAVGGASATAVPSAASMTSTRAASASSVHVPVSALGAGSAATAASEEMYVPRVVTSAQQKAGRTITARITGRCDFASKNRISSSLAIMGVSPPMSSVVVEKHHPVTVQTIPQATAAKYPRTIHPESSTSASRSLGTRSAHTQSLTSVHSIKVVD
partner: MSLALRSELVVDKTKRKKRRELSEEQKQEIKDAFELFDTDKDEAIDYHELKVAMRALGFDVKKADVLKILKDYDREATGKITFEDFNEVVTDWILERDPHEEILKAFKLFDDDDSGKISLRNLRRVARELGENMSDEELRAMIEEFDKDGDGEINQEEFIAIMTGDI

In the first assay the parent is B1. As to conditions: with ar6p1_human ARL6IP1, Q15041.
ar6p1_human ARL6IP1, Q15041, sequence (Q15041 whole entry): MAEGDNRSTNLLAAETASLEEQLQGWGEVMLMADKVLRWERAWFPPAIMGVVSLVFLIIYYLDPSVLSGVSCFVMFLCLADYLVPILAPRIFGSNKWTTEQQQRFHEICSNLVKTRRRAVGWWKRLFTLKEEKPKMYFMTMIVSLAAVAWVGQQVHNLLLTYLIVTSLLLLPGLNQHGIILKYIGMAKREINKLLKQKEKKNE
As to T166A, the “effect of a mutation on the interaction” value is “with no effect”.

Another assay covers variants of B1. As to conditions: with rtn3_human RTN3, O95197.
rtn3_human RTN3, O95197, sequence (O95197 whole entry): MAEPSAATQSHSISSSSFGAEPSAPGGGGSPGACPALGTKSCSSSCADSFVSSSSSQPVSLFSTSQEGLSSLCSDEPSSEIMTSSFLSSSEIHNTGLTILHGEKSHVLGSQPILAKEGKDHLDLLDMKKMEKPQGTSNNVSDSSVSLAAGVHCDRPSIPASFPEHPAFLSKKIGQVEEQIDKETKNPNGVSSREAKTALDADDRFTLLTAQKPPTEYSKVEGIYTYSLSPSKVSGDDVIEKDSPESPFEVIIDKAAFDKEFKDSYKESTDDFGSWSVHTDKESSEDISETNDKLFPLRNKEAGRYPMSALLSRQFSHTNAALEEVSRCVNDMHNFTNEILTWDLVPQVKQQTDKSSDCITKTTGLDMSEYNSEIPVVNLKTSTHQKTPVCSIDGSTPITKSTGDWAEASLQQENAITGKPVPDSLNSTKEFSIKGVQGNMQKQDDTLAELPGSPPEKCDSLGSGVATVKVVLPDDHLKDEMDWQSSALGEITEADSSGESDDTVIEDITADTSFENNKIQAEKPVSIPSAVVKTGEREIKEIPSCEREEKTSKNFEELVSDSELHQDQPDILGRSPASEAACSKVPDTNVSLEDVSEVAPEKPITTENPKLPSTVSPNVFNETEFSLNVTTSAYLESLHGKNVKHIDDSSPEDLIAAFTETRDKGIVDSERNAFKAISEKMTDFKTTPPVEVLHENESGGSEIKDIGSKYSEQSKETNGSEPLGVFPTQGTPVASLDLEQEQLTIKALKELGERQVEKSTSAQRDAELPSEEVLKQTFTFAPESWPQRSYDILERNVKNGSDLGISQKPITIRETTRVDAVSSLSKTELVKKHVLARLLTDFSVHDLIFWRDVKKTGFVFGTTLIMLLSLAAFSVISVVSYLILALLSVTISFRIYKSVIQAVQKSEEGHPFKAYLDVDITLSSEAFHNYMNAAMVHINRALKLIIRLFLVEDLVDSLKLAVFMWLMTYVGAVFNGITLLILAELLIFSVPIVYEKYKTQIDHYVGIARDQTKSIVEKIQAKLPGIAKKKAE
Turning to T166A, the “effect of a mutation on the interaction” value was “with no effect”.

The variants in another assay derive from B1. Conditions: with rtn4_human RTN4, Q9NQC3.
rtn4_human RTN4, Q9NQC3, sequence (Q9NQC3 whole entry): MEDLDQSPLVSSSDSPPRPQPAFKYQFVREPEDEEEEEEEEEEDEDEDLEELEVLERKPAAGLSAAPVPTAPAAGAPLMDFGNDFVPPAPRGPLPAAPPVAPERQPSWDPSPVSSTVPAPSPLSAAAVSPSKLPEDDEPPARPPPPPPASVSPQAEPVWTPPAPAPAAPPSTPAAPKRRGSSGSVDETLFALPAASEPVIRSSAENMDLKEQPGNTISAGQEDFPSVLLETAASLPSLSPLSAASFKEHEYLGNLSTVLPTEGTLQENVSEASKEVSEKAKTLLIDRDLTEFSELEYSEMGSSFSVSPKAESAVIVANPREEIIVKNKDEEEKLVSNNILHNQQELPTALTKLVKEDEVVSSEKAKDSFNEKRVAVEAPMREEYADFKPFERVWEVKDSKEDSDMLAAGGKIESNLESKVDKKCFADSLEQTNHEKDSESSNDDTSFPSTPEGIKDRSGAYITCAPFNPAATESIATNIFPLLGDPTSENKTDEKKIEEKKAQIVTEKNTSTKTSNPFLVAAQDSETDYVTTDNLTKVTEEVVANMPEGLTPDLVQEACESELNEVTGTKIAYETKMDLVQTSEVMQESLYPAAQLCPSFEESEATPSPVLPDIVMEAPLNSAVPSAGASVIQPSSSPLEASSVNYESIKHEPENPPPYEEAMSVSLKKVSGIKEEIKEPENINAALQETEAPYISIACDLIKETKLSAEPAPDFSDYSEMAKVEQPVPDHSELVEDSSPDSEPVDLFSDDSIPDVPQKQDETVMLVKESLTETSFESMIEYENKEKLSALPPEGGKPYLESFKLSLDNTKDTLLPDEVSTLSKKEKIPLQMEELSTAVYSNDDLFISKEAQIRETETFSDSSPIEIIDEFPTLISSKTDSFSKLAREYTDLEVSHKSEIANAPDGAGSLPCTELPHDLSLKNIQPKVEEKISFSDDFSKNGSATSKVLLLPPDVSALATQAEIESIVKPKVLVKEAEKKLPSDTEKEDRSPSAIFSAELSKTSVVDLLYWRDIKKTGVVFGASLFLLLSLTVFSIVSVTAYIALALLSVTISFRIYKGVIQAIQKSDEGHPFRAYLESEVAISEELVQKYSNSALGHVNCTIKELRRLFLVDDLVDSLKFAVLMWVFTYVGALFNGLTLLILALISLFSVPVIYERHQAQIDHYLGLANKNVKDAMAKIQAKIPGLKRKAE
As to T166A, the “effect of a mutation on the interaction” value is listed as “with no effect”.

The variants in another assay derive from B2. Conditions: with cetn3_human CETN3, O15182.
With MSSDEEKYSLPVVQNDSSRGSSVSSNLQEEYEELLHYAIVTPNIEPCASQSSHPKGELVPDVRISTIHDILHSQGNNSEVRETAIEVGKGCDFHISSHSKTDESSPVLSPRKPSHPVMDFFSSHLLADSSSPATNSSHTDAHEILVSDFLVSDENLQKMENVLDLWSSGLKTNIISELSKWRLNFIDWHRMEMRKEKEKHAAHLKQLCNQINELKELQKTFEISIGRKDEVISSLSHAIGKQKEKIELMRTFFHWRIGHVRARQDVYEGKLADQYYQRTLLKKVWKVWRSVVQKQWKDVVERACQARAEEVCIQISNDYEAKVAMLSGALENAKAEIQRMQHEKEHFEDSMKKAFMRGVCALNLEAMTIFQNRNDAGIDSTNNKKEEYGPGVQGKEHSAHLDPSAPPMPLPVTSPLLPSPPAAVGGASATAVPSAASMTSTRAASASSVHVPVSALGAGSAATAASEETYVPRVVTSAQQKAGRTITARITGRCDFASKNRISSSLAIMGVSPPMSSVVVEKHHPVTVQTIPQATAAKYPRTIHPESSTSASRSLGTRSAHTQSLTSVHSIKVVD [M469T], the “effect of a mutation on the interaction” value is on record as “with no effect”.
